Where a chain is given by its changes, count along the chain named. In names and notes the source's numbering stands.
What was measured:
[1] = molecular target: T1, human GDF15 (hGDF15), mature, wild-type (human, UniProt Q99988 197-308); assay: competition (sandwich) ELISA: clone immobilised, hGDF15 captured; competitor: biotinylated HuMAB2
T1 construct: Bought recombinant protein: R&D Systems 957-GD-025/CF in most assays, 9279-GD in the crystal and the GDF15/GFRAL/RET assay; It was biotinylated in the GFRAL assay; also called hGDF15 (WT); rhGDF15
T1 sequence: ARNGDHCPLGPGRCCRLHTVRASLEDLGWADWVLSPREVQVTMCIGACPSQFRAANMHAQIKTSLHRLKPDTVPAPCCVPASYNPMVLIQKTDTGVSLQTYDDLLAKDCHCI
Protocol: HuMAB2 and the anti-GDF15 monoclonal antibodies shown in Table 5 (2 μg/mL) were added to 96-well plates at 100 μL/well to be immobilized on the plates, and reacted with 100 μL/well of hGDF15 (R&D Systems, 957-GD-025/CF) serially diluted from a concentration of 1 ng/ml. HuMAB2 biotinylated using EZ-Link Micro NHS-PEG4-Bitinylation Kit (Thermo Fisher Scientific, 21955) was used as the detection antibody (1 μg/mL as 100 μL/well). Whether or not sandwich ELISA was established was determined using Streptavidin-HRP conjugate in Human GDF15 ELISA Kit (R&D Systems, DY957). The detection antibody in Human GDF15 ELISA Kit (R&D Systems, DY957) (Table 5), which can establish sandwich ELISA with any monoclonal antibody, was used as a positive control antibody (PC) for sandwich ELISA.
Then, other antibodies obtained this time were tested to see whether each of these antibodies competes with HuMAB2 by the same method as described above.

[2] = molecular target: T1, human GDF15 (hGDF15), mature, wild-type; assay: ELISA, hGDF15 immobilised; binding at 5 ng/mL antibody, HuMAB2 = 100
Protocol: A 100 μL hGDF15 solution (0.4 μg/ml) was added to a 96-well plate and left at 4° C. until the next morning to prepare a plate for ELISA. To the plate, 1% BSA was added for blocking for 1 hour. A dilution series of the culture supernatant containing the variant antibody was prepared from 30-fold dilution (common ratio of dilution factor was 3), and 100 μL of each solution was added to the ELISA plate and left for 2 hours. As a secondary antibody, an HRP conjugated anti-human IgG antibody (Gene Tex, GTX26759) (20000-fold dilution) was added and left for 1 hour. TMB (Sigma, T-0440) was used for color development reaction, and 2N sulfuric acid was used as a reaction terminator. The absorbance was measured at 450 nm.

[3] = molecular target: T1, human GDF15 (hGDF15), mature, wild-type; assay: ELISA, hGDF15 immobilised
mutant hGDF15 R13A = molecular target: T2, mutant hGDF15 R13A (human, UniProt Q99988 197-308); assay: sandwich ELISA: antibody immobilised, WT or mutant hGDF15, goat polyclonal detection; N=3, mean ± SD
T2 construct: Expressed in ExpiCHO-S cells and used as culture supernatant in the ELISA
T2 chain: T1 sequence with R13A

mutant hGDF15 R16A = molecular target: T3, mutant hGDF15 R16A (human, UniProt Q99988 197-308); assay: as above
T3 construct: Expressed in ExpiCHO-S cells and used as culture supernatant in the ELISA
T3 chain: T1 sequence with R16A

mutant hGDF15 4A = molecular target: T4, mutant hGDF15 4A (human, UniProt Q99988 197-308); assay: as above
T4 construct: Expressed in ExpiCHO-S cells and used as culture supernatant
T4 chain: T1 sequence with G12A, R13A, R16A, L17A

mutant hGDF15 6A = molecular target: T5, mutant hGDF15 6A (human, UniProt Q99988 197-308); assay: as above
T5 construct: Expressed in ExpiCHO-S cells and used as culture supernatant
T5 chain: T1 sequence with G10A, P11A, G12A, R13A, R16A, L17A

mutant hGDF15 R13A, R16A = molecular target: T6, mutant hGDF15 R13A, R16A (human, UniProt Q99988 197-308); assay: as above
T6 construct: Expressed in ExpiCHO-S cells and used as culture supernatant in the ELISA
T6 chain: T1 sequence with R13A, R16A

mutant hGDF15 3A = molecular target: T7, mutant hGDF15 3A (human, UniProt Q99988 197-308); assay: as above
T7 construct: Expressed in ExpiCHO-S cells and used as culture supernatant
T7 chain: T1 sequence with G12A, R13A, R16A

mutant hGDF15 T72A = molecular target: T8, mutant hGDF15 T72A (human, UniProt Q99988 197-308); assay: as above
T8 construct: Expressed in ExpiCHO-S cells and used as culture supernatant in the ELISA
T8 chain: T1 sequence with T72A

mutant hGDF15 8A = molecular target: T9, mutant hGDF15 8A (human, UniProt Q99988 197-308); assay: as above
T9 construct: Expressed in ExpiCHO-S cells and used as culture supernatant
T9 chain: T1 sequence with P8A, L9A, G10A, P11A, G12A, R13A, R16A, L17A

mutant hGDF15 H6A = molecular target: T10, mutant hGDF15 H6A (human, UniProt Q99988 197-308); assay: as above
T10 construct: Expressed in ExpiCHO-S cells and used as culture supernatant in the ELISA
T10 chain: T1 sequence with H6A

[4] = molecular target: T1, human GDF15 (hGDF15), mature, wild-type; assay: competition ELISA: GFRAL immobilised, biotinylated GDF15 plus serially diluted antibody; inhibition of GDF15-GFRAL complex formation
Description: First, the effect on GDF15 and GFRAL complex formation was examined (FIG. 12). GFRAL (R&D systems, 9697-GR) was immobilized on a plate, and GDF15 (R&D systems, 957-GD/CF) biotinylated with EZ-Link Micro NHS-PEG4-Bitinylation Kit (Thermo Fisher Scientific, 21955) and a serially diluted solution of an anti-GDF15 monoclonal antibody (Table 26) were reacted with the plate. Human IgG1, kappa-Isotype Control (Abcam) was used as a negative control antibody. GDF15 bound to GFRAL was detected using Pierce High Sensitivity Streptavidin-HRP (Thermo Fisher Scientific, 21130). TMB 1-Component Microwell Peroxidase Substrate, SureBlue (SeraCare Life Sciences) was used for color development, and the reaction was stopped by adding a stop solution (Wako). Absorbance was measured at 450 nm (OD450) using Emax (Molecular Devices). The % of control value was calculated according to Equation-1 from the OD450 value when each antibody was added, with the OD450 value when no antibody was added as a control. The IC50 value was obtained by calculating the inhibition rate from the % of control value thus obtained according to Equation-2 and using an Excel macro for IC50 calculation.

B1: MAB1 (antibody, V domains shown)
VH: EVQLQQSGPELEKPGASVKISCKASGYSFTGYNMNWVKQSNGKSLEWIGNIDPYYGGTSYNQKFKGKATLTVDKSSSTAYMQLKSLTSEDSAVYYCARPGRYDGAWFAYWGQGTLVTVSA
VL: QIVLSQSPAILSASPGEKVTMTCRASSNVNYMHWYQQKPGSSPKPWIYATSNLASGVPARFSGSGSGTSYSLTISRVEAEDAATYYCQQWSDNPLTFGAGTKLELK
notes: Mouse monoclonal antibody from hybridoma; also called clone MAB1
Inhibition % [1]: 82%

B2: H3-L48K (antibody, human IgG1, kappa, V domains shown)
VH: QVQLQESGPGLVKPSETLSLTCTVSGFSINSDCYWIWIRQPPGKGLEYIGYTFYSGITYYNPSLASRTTISRDTSKNQFSLKLSSVTAADTAVYYCARDCDYAMDYWGQGTLVTVSS
VL: DIQMTQSPSSLSASVGDRVTITCRASQKISNYLNWYQQKPGKAVKLLIHYTSTLHSGVPSRFSGSGSGTDYTLTISSLQPEDFATYFCQQGNTLPWTFGQGTKLEIKR
notes: In the label, L means the L chain; Tested as culture supernatant; also called HuMAB2 variant L48K
fold change in binding strength compared to HuMAB2 [2]: ~1.5 fold

B3: H48S-L7 (antibody, human IgG1, kappa, V domains shown)
VH: B2 VH with N30S
VL: B2 VL with K28D
notes: Tested as culture supernatant; also called HuMAB2 variant H48S
fold change in binding strength compared to HuMAB2 [2]: ~1.5 fold

B4: H71Y-L7 (antibody, human IgG1, kappa, V domains shown)
VH: B2 VH with F53Y
VL: B2 VL with K28D
notes: In the label, H means the H chain; also called HuMAB2 variant H71Y
binding result [3]: binds

B5: H49R-L7 (antibody, human IgG1, kappa, V domains shown)
VH: B2 VH with S31R
VL: B2 VL with K28D
notes: In the label, H means the H chain; also called HuMAB2 variant H49R
binding result [3]: binds

B6: H3-L72F (antibody, human IgG1, kappa, V domains shown)
VH: B2 VH
VL: B2 VL with K28D, S52F
notes: In the label, L means the L chain; also called HuMAB2 variant L72F
binding result [3]: binds

B7: H83R-L7 (antibody, human IgG1, kappa, V domains shown)
VH: B2 VH with A65R
VL: B2 VL with K28D
notes: In the label, H means the H chain; Tested as culture supernatant; also called HuMAB2 variant H83R
fold change in binding strength compared to HuMAB2 [2]: ~1.5 fold

B8: H3-L112D (antibody, human IgG1, kappa, V domains shown)
VH: B2 VH
VL: B2 VL with K28D, N92D
notes: In the label, L means the L chain; Tested as culture supernatant; also called HuMAB2 variant L112D
fold change in binding strength compared to HuMAB2 [2]: ~1.5 fold

B9: H3-L74H (antibody, human IgG1, kappa, V domains shown)
VH: B2 VH
VL: B2 VL with K28D, L54H
notes: In the label, L means the L chain; also called HuMAB2 variant L74H
binding result [3]: binds

B10: H49D-L7 (antibody, human IgG1, kappa, V domains shown)
VH: B2 VH with S31D
VL: B2 VL with K28D
notes: In the label, H means the H chain; also called HuMAB2 variant H49D
binding result [3]: binds

B11: H120F-L7 (antibody, human IgG1, kappa, V domains shown)
VH: B2 VH with Y102F
VL: B2 VL with K28D
notes: In the label, H means the H chain; Tested as culture supernatant; also called HuMAB2 variant H120F
fold change in binding strength compared to HuMAB2 [2]: ~1.5 fold

B12: Hu01G06-127 (antibody, V domains shown)
VH: QVQLVQSGAEVKKPGASVKVSCKASGYTFTDYNMDWVRQAPGQSLEWMGQINPNNGLIFFNQKFQGRVTLTTDTSTSTAYMELRSLRSDDTAVYYCAREAITTVGAMDYWGQGTLVTVSS
VL: DIQMTQSPSSLSASVGDRVTITCRTSENLHNYLAWYQQKPGKSPKLLIYDAKTLADGVPSRFSGSGSGTDYTLTISSLQPEDFATYYCQHFWSDPYTFGQGTKLEIKR
relative binding (amount bound to 500 pg/mL hGDF15 = 100) (mutant hGDF15 R13A): 91.4 relative value (WT hGDF15 = 100) | relative binding (amount bound to 500 pg/mL hGDF15 = 100) (mutant hGDF15 R16A): 102 relative value (WT hGDF15 = 100) | relative binding (amount bound to 500 pg/mL hGDF15 = 100) (mutant hGDF15 4A): 83.5 relative value (WT hGDF15 = 100) | relative binding (amount bound to 500 pg/mL hGDF15 = 100) (mutant hGDF15 6A): 61.6 relative value (WT hGDF15 = 100) | relative binding (amount bound to 500 pg/mL hGDF15 = 100) (mutant hGDF15 R13A, R16A): 87.6 relative value (WT hGDF15 = 100) | relative binding (amount bound to 500 pg/mL hGDF15 = 100) (mutant hGDF15 3A): 96.2 relative value (WT hGDF15 = 100) | relative binding (amount bound to 500 pg/mL hGDF15 = 100) (mutant hGDF15 T72A): 108 relative value (WT hGDF15 = 100) | relative binding (amount bound to 500 pg/mL hGDF15 = 100) (mutant hGDF15 8A): 57.1 relative value (WT hGDF15 = 100) | relative binding (amount bound to 500 pg/mL hGDF15 = 100) (mutant hGDF15 H6A): 90.5 relative value (WT hGDF15 = 100) | IC50 [4]: 0.05 nM

B13: MAB13 (antibody, V domains shown)
VH: EIQLQQTGPELVKPGASVKISCKASGYSFTDYIMLWVKQRHGKSLEWIGNIHPYYGTTSYNLKFKGKATLTVDKSSSTAYMQLNSLTSEDSAVYYCARGIGGSPFAYWGQGTLVTVSA
VL: DVLMTQTPLSLPVSLGDQASISCRSSQSIVHSNGNTYLEWYLQKPGQSPKLLIYKVSNRFSGVPDRFTGTGSGTDFTLKISRVEAEDLGVYYCFQGSHVPYTFGGGTKLEIK
notes: Mouse monoclonal antibody from hybridoma; also called clone MAB13
Inhibition % [1]: 79%

Reference: patent US20230036655A1 (OTSUKA PHARMACEUTICAL, published 2023)
